Measured values: article PMC11574045, “A cofactor-induced repressive type of transcription factor condensation can be induced by synthetic peptides to suppress tumorigenesis” (The EMBO Journal, 2024)

B1: SMARCAD1 (protein, UniProt Q9H4L7 1-1026, looked up)
SWI/SNF-related …: MNLFNLDRFRFEKRNKIEEAPEATPQPSQPGPSSPISLSAEEENAEGEVSRANTPDSDITEKTEDSSVPETPDNERKASISYFKNQRGIQYIDLSSDSEDVVSPNCSNTVQEKTFNKDTVIIVSEPSEDEESQGLPTMARRNDDISELEDLSELEDLKDAKLQTLKELFPQRSDNDLLKLIESTSTMDGAIAAALLMFGDAGGGPRKRKLSSSSEPYEEDEFNDDQSIKKTRLDHGEESNESAESSSNWEKQESIVLKLQKEFPNFDKQELREVLKEHEWMYTEALESLKVFAEDQDMQYVSQSEVPNGKEVSSRSQNYPKNATKTKLKQKFSMKAQNGFNKKRKKNVFNPKRVVEDSEYDSGSDVGSSLDEDYSSGEEVMEDGYKGKILHFLQDASIGELTLIPQCSQKKAQKITELRPFNSWEALFTKMSKTNGLSEDLIWHCKTLIQERDVVIRLMNKCEDISNKLTKQVTMLTGNGGGWNIEQPSILNQSLSLKPYQKVGLNWLALVHKHGLNGILADEMGLGKTIQAIAFLAYLYQEGNNGPHLIVVPASTIDNWLREVNLWCPTLKVLCYYGSQEERKQIRFNIHSRYEDYNVIVTTYNCAISSSDDRSLFRRLKLNYAIFDEGHMLKNMGSIRYQHLMTINANNRLLLTGTPVQNNLLELMSLLNFVMPHMFSSSTSEIRRMFSSKTKSADEQSIYEKERIAHAKQIIKPFILRRVKEEVLKQLPPKKDRIELCAMSEKQEQLYLGLFNRLKKSINNLEKNTEMCNVMMQLRKMANHPLLHRQYYTAEKLKEMSQLMLKEPTHCEANPDLIFEDMEVMTDFELHVLCKQYRHINNFQLDMDLILDSGKFRVLGCILSELKQKGDRVVLFSQFTMMLDILEVLLKHHQHRYLRLDGKTQISERIHLIDEFNTDMDIFVFLLSTKAGGLGINLTSANVVILHDIDCNPYNDKQAEDRCHRVGQTKEVLVIKLISQGTIEESMLKINQQKLKLEQDMTTVDEGDEGSMPADIATLLKTSMGL
B2: SNAPC4 (protein, UniProt Q5SXM2 1-1469, looked up)
snRNA-activating protein …: MDVDAEREKITQEIKELERILDPGSSGSHVEISESSLESDSEADSLPSEDLDPADPPISEEERWGEASNDEDDPKDKTLPEDPETCLQLNMVYQEVIQEKLAEANLLLAQNREQQEELMRDLAGSKGTKVKDGKSLPPSTYMGHFMKPYFKDKVTGVGPPANEDTREKAAQGIKAFEELLVTKWKNWEKALLRKSVVSDRLQRLLQPKLLKLEYLHQKQSKVSSELERQALEKQGREAEKEIQDINQLPEEALLGNRLDSHDWEKISNINFEGSRSAEEIRKFWQNSEHPSINKQEWSREEEERLQAIAAAHGHLEWQKIAEELGTSRSAFQCLQKFQQHNKALKRKEWTEEEDRMLTQLVQEMRVGSHIPYRRIVYYMEGRDSMQLIYRWTKSLDPGLKKGYWAPEEDAKLLQAVAKYGEQDWFKIREEVPGRSDAQCRDRYLRRLHFSLKKGRWNLKEEEQLIELIEKYGVGHWAKIASELPHRSGSQCLSKWKIMMGKKQGLRRRRRRARHSVRWSSTSSSGSSSGSSGGSSSSSSSSSEEDEPEQAQAGEGDRALLSPQYMVPDMDLWVPARQSTSQPWRGGAGAWLGGPAASLSPPKGSSASQGGSKEASTTAAAPGEETSPVQVPARAHGPVPRSAQASHSADTRPAGAEKQALEGGRRLLTVPVETVLRVLRANTAARSCTQKEQLRQPPLPTSSPGVSSGDSVARSHVQWLRHRATQSGQRRWRHALHRRLLNRRLLLAVTPWVGDVVVPCTQASQRPAVVQTQADGLREQLQQARLASTPVFTLFTQLFHIDTAGCLEVVRERKALPPRLPQAGARDPPVHLLQASSSAQSTPGHLFPNVPAQEASKSASHKGSRRLASSRVERTLPQASLLASTGPRPKPKTVSELLQEKRLQEARAREATRGPVVLPSQLLVSSSVILQPPLPHTPHGRPAPGPTVLNVPLSGPGAPAAAKPGTSGSWQEAGTSAKDKRLSTMQALPLAPVFSEAEGTAPAASQAPALGPGQISVSCPESGLGQSQAPAASRKQGLPEAPPFLPAAPSPTPLPVQPLSLTHIGGPHVATSVPLPVTWVLTAQGLLPVPVPAVVSLPRPAGTPGPAGLLATLLPPLTETRAAQGPRAPALSSSWQPPANMNREPEPSCRTDTPAPPTHALSQSPAEADGSVAFVPGEAQVAREIPEPRTSSHADPPEAEPPWSGRLPAFGGVIPATEPRGTPGSPSGTQEPRGPLGLEKLPLRQPGPEKGALDLEKPPLPQPGPEKGALDLGLLSQEGEAATQQWLGGQRGVRVPLLGSRLPYQPPALCSLRALSGLLLHKKALEHKATSLVVGGEAERPAGALQASLGLVRGQLQDNPAYLLLRARFLAAFTLPALLATLAPQGVRTTLSVPSRVGSESEDEDLLSELELADRDGQPGCTTATCPIQGAPDSGKCSASSCLDTSNDPDDLDVLRTRHARHTRKRRRLV
B3: SNAI2 (protein, UniProt O43623 1-268, looked up)
Zinc finger protein SNAI2: MPRSFLVKKHFNASKKPNYSELDTHTVIISPYLYESYSMPVIPQPEILSSGAYSPITVWTTAAPFHAQLPNGLSPLSGYSSSLGRVSPPPPSDTSSKDHSGSESPISDEEERLQSKLSDPHAIEAEKFQCNLCNKTYSTFSGLAKHKQLHCDAQSRKSFSCKYCDKEYVSLGALKMHIRTHTLPCVCKICGKAFSRPWLLQGHIRTHTGEKPFSCPHCNRAFADRSNLRAHLQTHSDVKKYQCKNCSKTFSRMSLLHKHEESGCCVAH
B4: SMYD1 (protein, UniProt Q8NB12 1-490, looked up)
Histone-lysine …: MTIGRMENVEVFTAEGKGRGLKATKEFWAADIIFAERAYSAVVFDSLVNFVCHTCFKRQEKLHRCGQCKFAHYCDRTCQKDAWLNHKNECSAIKRYGKVPNENIRLAARIMWRVEREGTGLTEGCLVSVDDLQNHVEHFGEEEQKDLRVDVDTFLQYWPPQSQQFSMQYISHIFGVINCNGFTLSDQRGLQAVGVGIFPNLGLVNHDCWPNCTVIFNNGNHEAVKSMFHTQMRIELRALGKISEGEELTVSYIDFLNVSEERKRQLKKQYYFDCTCEHCQKKLKDDLFLGVKDNPKPSQEVVKEMIQFSKDTLEKIDKARSEGLYHEVVKLCRECLEKQEPVFADTNIYMLRMLSIVSEVLSYLQAFEEASFYARRMVDGYMKLYHPNNAQLGMAVMRAGLTNWHAGNIEVGHGMICKAYAILLVTHGPSHPITKDLEAMRVQTEMELRMFRQNEFMYYKMREAALNNQPMQVMAEPSNEPSPALFHKKQ
B5: BCL11B (protein, UniProt Q9C0K0 1-894, looked up)
B-cell lymphoma/leukemia 11B: MSRRKQGNPQHLSQRELITPEADHVEAAILEEDEGLEIEEPSGLGLMVGGPDPDLLTCGQCQMNFPLGDILVFIEHKRKQCGGSLGACYDKALDKDSPPPSSRSELRKVSEPVEIGIQVTPDEDDHLLSPTKGICPKQENIAGPCRPAQLPAVAPIAASSHPHSSVITSPLRALGALPPCLPLPCCSARPVSGDGTQGEGQTEAPFGCQCQLSGKDEPSSYICTTCKQPFNSAWFLLQHAQNTHGFRIYLEPGPASSSLTPRLTIPPPLGPEAVAQSPLMNFLGDSNPFNLLRMTGPILRDHPGFGEGRLPGTPPLFSPPPRHHLDPHRLSAEEMGLVAQHPSAFDRVMRLNPMAIDSPAMDFSRRLRELAGNSSTPPPVSPGRGNPMHRLLNPFQPSPKSPFLSTPPLPPMPPGGTPPPQPPAKSKSCEFCGKTFKFQSNLIVHRRSHTGEKPYKCQLCDHACSQASKLKRHMKTHMHKAGSLAGRSDDGLSAASSPEPGTSELAGEGLKAADGDFRHHESDPSLGHEPEEEDEEEEEEEEELLLENESRPESSFSMDSELSRNRENGGGGVPGVPGAGGGAAKALADEKALVLGKVMENVGLGALPQYGELLADKQKRGAFLKRAAGGGDAGDDDDAGGCGDAGAGGAVNGRGGGFAPGTEPFPGLFPRKPAPLPSPGLNSAAKRIKVEKDLELPPAALIPSENVYSQWLVGYAASRHFMKDPFLGFTDARQSPFATSSEHSSENGSLRFSTPPGDLLDGGLSGRSGTASGGSTPHLGGPGPGRPSSKEGRRSDTCEYCGKVFKNCSNLTVHRRSHTGERPYKCELCNYACAQSSKLTRHMKTHGQIGKEVYRCDICQMPFSVYSTLEKHMKKWHGEHLLTNDVKIEQAERS

Test system: HEK293FT cells transfected with TF library
Experiment: Screening of TF condensates based on fluorescent puncta
Assay type: cell-based
Settings: Figure 1B numerical data; TF library screen, one value per transcriptional factor
In short: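 HEK293FT, PEI transfection of TF library, 60 h; ±glucose 12 h; 4% PFA fix, 0.05% Triton X-100 permeabilization, 5% BSA block; anti-Flag/anti-GAL4 overnight at 4 °C, Alexa 488 secondary 1 h; high-content imaging, 50 fields/well.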

Row | Molecule | Z score of condensed fraction
1 | B1 | -0.654
2 | B2 | -0.9989
3 | B3 | -0.6818
4 | B4 | -0.4905
5 | B5 | -0.7987
